Each block holds one molecule with its values, some of them ahead of it. Where no end group is shown, it is not given here.
Key:
[1] = system: diabetic model mouse C57BL/KsJ-db/db mice; experiment: Oral glucose tolerance test; assay type: in vivo; conditions: for glucose tolerance ameliorating effect (blood glucose level after glucose loading): db/db mice fasted overnight, intravenous, mouse IP-10 6 μg/head, GLP-1 (7-36 Amide) 50 μg/head, 3 g/kg D-glucose orally, 0-135 minutes, FIGS. 2 and 3; for blood glucose levels at 90 minutes after glucose loading: db/db mice, intravenous mouse Mig or human I-TAC, versus solvent control group, FIG. 4
Experimental: In the test, diabetic model mouse C57BL/KsJ-db/db mice (male, SPF grade, 7-week old, Clea Japan) were fasted overnight from the day before testing, mouse IP-10 (PEPRO TECH) or GLP-1 (7-36 Amide) (Peptide Institute), previously dried, was dissolved in physiological saline (Otsuka Pharmaceutical), and intravenous administration was conducted (6 μg/head; n=4 for IP-10, 50 μg/head; n=4 for GLP-1). For a solvent control group, physiological saline (Otsuka Pharmaceutical) was used (n=4). After intravenous administration, 3 g/kg of D-glucose was orally administered. Before glucose loading (0 minute) and 15, 45, 90 and 135 minutes after glucose loading, blood was collected from the caudal vein, and blood glucose levels were measured in accordance with the method described below.
That is, 10 μl of blood was collected and mixed with 100 μL of 0.4 N perchloric acid, further 50 μL of 0.37 M potassium carbonate was added, and the supernatant after centrifugation was analyzed using the Glucose CII•Test Wako (glucose quantitation kit, mutarotase•GOD method, Wako Pure Chemicals) to determine the blood glucose level.
Also for Mig and I-TAC, which are CXCR3 ligands other than IP-10, mouse Mig or human I-TAC (both manufactured by BIOCARTA), previously dried, was dissolved in physiological saline (Otsuka Pharmaceutical), intravenous administration was conducted, and glucose tolerance ameliorating action was evaluated by the same technique.

[2] = molecular target: human CXCR3 (human) (UniProt P49682); experiment: cell-based or functional assay
[3] = molecular target: T1, CXCR3 (Homo sapiens, UniProt P49682); experiment: Calcium signaling using FLIPR, CHO/Gqi5 cells transiently expressing CXCR3; assay type: cell-based; design: prepared by amplifying the coding region of human CXCR3 by the PCR technique; expressed in transfected cells; host or cells: CHO/Gqi5 cells; conditions: pcDNA3.1/Zeo-CXCR3 transiently transfected CHO/Gqi5 cells; human ligands, 300 ng/ml; FIG. 5
T1 sequence (P49682 1-368): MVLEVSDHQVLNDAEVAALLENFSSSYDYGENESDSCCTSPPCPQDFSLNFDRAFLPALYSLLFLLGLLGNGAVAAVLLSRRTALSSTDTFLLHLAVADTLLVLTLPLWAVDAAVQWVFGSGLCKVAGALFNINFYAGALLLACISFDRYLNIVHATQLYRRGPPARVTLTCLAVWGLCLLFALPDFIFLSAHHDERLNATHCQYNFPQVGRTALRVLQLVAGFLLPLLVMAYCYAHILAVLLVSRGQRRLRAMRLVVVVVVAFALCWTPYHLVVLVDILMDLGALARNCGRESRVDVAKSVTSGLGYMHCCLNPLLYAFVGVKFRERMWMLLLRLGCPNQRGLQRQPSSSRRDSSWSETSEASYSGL
Experimental: (§1) CHO/Gqi5 cells, at 2×10^4 cells/well, were sown to a 96-well Black bottom clear plate (Corning), and cultured in the absence of antibiotics in a CO2 incubator for 24 hours. 50 ng of pcDNA3.1/Zeo-CXCR3 or pcDNA3.1 was diluted in 5 μl of OPTI-MEM, and 0.3 μl of LipofectAmine was diluted in 5 μl of OPTI-MEM. Both were mixed and allowed to stand at room temperature for 30 minutes, after which 40 μl of a serum-free F12 medium was added, and the mixture was added to wells once washed with a serum-free F12 medium. After cultivation in a CO2 incubator for 4 hours, the medium was replaced with a 10% FBS-supplemented F12 medium (once washed), and the cells were cultured in a CO2 incubator for 24 hours and subjected to a measurement using FLIPR®.
(§2) The cells recovered from each well were sown to a 96-well Black bottom clear plate (Corning). When cell counting was possible, the cells were sown at 2×10^4 cells/well. Next day, the medium was removed, 50 μl of an H/H/F/PB solution containing 2 μM Fluo-3-AM and 0.02% Pluronic acid was added, and cultivation was conducted in a CO2 incubator for 1 hour. […]

[4] = molecular target: T1, CXCR3; experiment: Calcium signaling using FLIPR, CHO/Gqi5 line stably expressing CXCR3 (#122-17); assay type: cell-based; design: prepared by amplifying the coding region of human CXCR3 by the PCR technique; expressed in transfected cells; host or cells: CHO/Gqi5 cells; conditions: #122-17 line, FIG. 6; for concentration dependency of the response: human ligands at 100, 300, 1,000 ng/ml; for ligand concentration from which responsiveness could be confirmed: human ligands
Experimental: 1×10^6 cells were sown to a T25 flask, and cultured in a CO2 incubator for 24 hours. pcDNA3.1/Zeo-CXCR3 was cleaved with the restriction endonuclease SspI, and linearized at the vector portion. 2.5 μg of this plasmid DNA was diluted in 250 μl of OPTI-MEM, and 15 μl of LipofectAmine was diluted in 250 μl of OPTI-MEM. Both were mixed and allowed to stand at room temperature for 30 minutes, after which 2 ml of a serum-free F12 medium was added, and the mixture was added to a flask once washed with a serum-free F12 medium. After cultivation in a CO2 incubator for 4 hours, the medium was replaced with a 10% FBS-supplemented F12 medium (once washed), and cultivation was conducted in a CO2 incubator for 48 hours. The cells were recovered and sown to a 96-well plate at 1, 5 or 25 cells/well. At this time, Zeocin was added at 250 μg/ml. Three 96-well plates for each cell concentration, i.e., a total of nine plates, were cultured. About 20 days later, cells were recovered from the wells with evidence of cell proliferation, and sown to a 96-well Black bottom clear plate (Corning). Next day the plate was subjected to a measurement using FLIPR®, and selection of lines showing good ligand responsiveness was performed. For the lines showing good ligand responsiveness, recloning was performed. Each was selected at 0.1 cells/well on the 96-well plate, cells were recovered from the wells showing evidence of cell proliferation after about 20 days, and line selection was performed in the same manner as above.
The cells recovered from each well were sown to a 96-well Black bottom clear plate (Corning). When cell counting was possible, the cells were sown at 2×10^4 cells/well. Next day, the medium was removed, 50 μl of an H/H/F/PB solution containing 2 μM Fluo-3-AM and 0.02% Pluronic acid was added, and cultivation was conducted in a CO2 incubator for 1 hour. The medium was replaced with 100 μl of H/H/F/PB solution and heating was conducted in a CO2 incubator for 10 minutes, after which the plate was set to FLIPR® and further heated at 37° C. for 10 minutes, after which 25 μl of the ligand similarly heated at 37° C. was added using an injector, and a measurement of calcium signaling was conducted.
By the aforementioned method of (2)-2., pcDNA3.1/Zeo-CXCR3 was cleaved with the restriction endonuclease SspI and linearized at the vector portion. This was transfected to CHO/Gqi5 cells, and drug-resistant lines were selected using 250 μg/ml zeocin to obtain 156 drug-resistant lines. Next, for these resistant lines, responsiveness to IP-10 was confirmed using FLIPR®, and lines showing high ligand responsiveness (6 clones) were isolated. […]

[5] = system: CHO/Gqi5 cell line incorporating an empty vector (pcDNA3.1); experiment: Calcium signaling using FLIPR, CHO/Gqi5 cells transfected with control pcDNA3.1 (empty vector); assay type: cell-based; conditions: control pcDNA3.1 transfected CHO/Gqi5 cells; human ligands, 300 ng/ml; FIG. 5
Experimental: as §1, §2

[6] = molecular target: T1, CXCR3; conditions: J. Biol. Chem., 273(29): 18288-18291 (1998); Eur. J. Immunol., 29 (1999); cited from earlier work

Molecule: GLP-1 (7-36 Amide) (HAEGTFTSDVSSYLEGQAAKEFIAWLVKGR-NH2; UniProt P01275 98-127, looked up) [a kind of incretin known to act on the pancreas to promote insulin secretion (Peptide Institute), reference compound]
glucose tolerance ameliorating effect (blood glucose level after glucose loading) [1]: glucose tolerance ameliorating effect

lowest ligand concentration giving a calcium response (FLIPR) in the CXCR3 stably expressing CHO/Gqi5 line #122-17 [2]: 300 ng/mL
Molecule: Human IP-10 (Peprotech) (from UniProt P02778 22-98) (ligand)

responsiveness to ligand (calcium signaling, fluorescence intensity) [3]: a response was observed | ligand concentration from which responsiveness could be confirmed [4]: ≥ 100 ng/mL
Molecule: I-TAC: CXC chemokine, physiological ligand for CXCR3; human I-TAC
concentration dependency of the response [4]: concentration dependency could be confirmed | blood glucose levels at 90 minutes after glucose loading [1]: decreased compared to the solvent control group | responsiveness to ligand (calcium signaling, fluorescence intensity) [5]: no response was detected

responsiveness to ligand (calcium signaling, fluorescence intensity) [3]: a response was observed | ligand concentration from which responsiveness could be confirmed [4]: ≥ 300 ng/mL
Molecule: IP-10: CXC chemokine, physiological ligand for CXCR3; mouse IP-10 (PEPRO TECH) in Example 1, human IP-10 (Peprotech) in Example 4
concentration dependency of the response [4]: concentration dependency could be confirmed | glucose tolerance ameliorating effect (blood glucose level after glucose loading) [1]: glucose tolerance ameliorating effect nearly equivalent, on a dose basis, to that of GLP-1 | responsiveness to ligand (calcium signaling, fluorescence intensity) [5]: no response was detected

Molecule: MCP-3: CC chemokine known to weakly bind to CXCR3
binding to CXCR3 [6]: weakly bind

Molecule: MCP-4: CC chemokine known to weakly bind to CXCR3
binding to CXCR3 [6]: weakly bind

Molecule: MIP-3a: CC chemokine known to weakly bind to CXCR3
binding to CXCR3 [6]: weakly bind

Molecule: RANTES: CC chemokine known to weakly bind to CXCR3
binding to CXCR3 [6]: weakly bind

Molecule: eotaxin: CC chemokine known to weakly bind to CXCR3
binding to CXCR3 [6]: weakly bind

lowest ligand concentration giving a calcium response (FLIPR) in the CXCR3 stably expressing CHO/Gqi5 line #122-17 [2]: 100 ng/mL
Molecule: human I-TAC (G/T) (from UniProt O14625 22-94) (ligand)

B1: 6Ckine: CC chemokine known to weakly bind to CXCR3 (protein, UniProt O00585 24-134, looked up)
C-C motif chemokine 21: SDGGAQDCCLKYSQRKIPAKVVRSYRKQEPSLGCSIPAILFLPRKRSQAELCADPKELWVQQLMQHLDKTPSPQKPAQGCRKDRGASKTGKKGKGSKGCKRTERSQTPKGP
binding to CXCR3 [6]: weakly bind

B2: Mig: CXC chemokine, physiological ligand for CXCR3; mouse Mig (BIOCARTA) (protein, UniProt P18340 22-126, looked up)
C-X-C motif chemokine 9: TLVIRNARCSCISTSRGTIHYKSLKDLKQFAPSPNCNKTEIIATLKNGDQTCLDPDSANVKKLMKEWEKKISQKKKQKRGKKHQKNMKNRKPKTPQSRRRSRKTT
blood glucose levels at 90 minutes after glucose loading [1]: decreased compared to the solvent control group

Source: patent publication US20050119174A1, “Novel blood sugar controller and method of screening the same” (Sumitomo Pharmaceuticals Co. Ltd., priority 2002, published 2005)
